Measurements taken from the supplement of paper PMC10567573.
± gives the standard deviation.

Test: protein stability index of a GFP-peptide fusion (GPS, HEK-293T) (PSI 1-6); higher = more stable
Settings: c terminus: a fixed tail appended
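Further: 24-mer peptide tiles fused after GFP, lentivirally expressed, FACS-sorted into six equal bins by GFP/DsRed ratio, decoded by Illumina sequencing, PSI is the read-weighted mean bin number.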

Sequence: LAEYCIKTKVPSNDNSSDLLYDDL [UBE2R2]
- protein stability index (treatment: DMSO): 4.13 ± 0.17
- protein stability index (treatment: MLN4924 1 uM, 8 h): 4.19 ± 0.32

Sequence: LQAESPPVDPDSQADTVHSNPELD [DNAAF3]
- protein stability index (treatment: DMSO): 5.7 ± 0.17
- protein stability index (treatment: MLN4924 1 uM, 8 h): 5.63 ± 0.27

Sequence: WMPPPSRADSFKVSYQLADGGEPQ [TNXB]
- protein stability index (treatment: DMSO): 4.03 ± 0.44
- protein stability index (treatment: MLN4924 1 uM, 8 h): 4.23 ± 0.64

Sequence: FLLQNDANPSIRDKEGYNSIHYAA [ANKRD44]
- protein stability index (treatment: DMSO): 2.75 ± 0.25
- protein stability index (treatment: MLN4924 1 uM, 8 h): 2.85 ± 0.32

Sequence: SIARLEMGPDEYEEMEEEEEEEEE [FBXO3]
- protein stability index (treatment: DMSO): 5.41 ± 0.26
- protein stability index (treatment: MLN4924 1 uM, 8 h): 5.62 ± 0.28

Sequence: GLPSSELDAVENQLKWASWELHSL [ZNF24]
- protein stability index (treatment: DMSO): 2.98 ± 0.15
- protein stability index (treatment: MLN4924 1 uM, 8 h): 3 ± 0.38

Sequence: TLSKSEYMVIEEGGMNHSAFPQTP [KCNA3]
- protein stability index (treatment: DMSO): 3.43 ± 0.15
- protein stability index (treatment: MLN4924 1 uM, 8 h): 3.53 ± 0.28

Sequence: LISGVTLDNCVEVGRIANTYNLTE [KLHL13]
- protein stability index (treatment: DMSO): 2.89 ± 0.18
- protein stability index (treatment: MLN4924 1 uM, 8 h): 2.77 ± 0.15

Sequence: TPLHIAAQNNCPAIMNALIEAGAH [FEM1A]
- protein stability index (treatment: DMSO): 3.07 ± 0.2
- protein stability index (treatment: MLN4924 1 uM, 8 h): 3.13 ± 0.23

Sequence: GEDEENREHRVRRIHVRRHITHDE [KCTD13]
- protein stability index (treatment: DMSO): 5.23 ± 0.2
- protein stability index (treatment: MLN4924 1 uM, 8 h): 5.1 ± 0.29

Sequence: SDAANRNHEALRQAKQEMNESRRQ [PRPH]
- protein stability index (treatment: DMSO): 5.2 ± 0.26
- protein stability index (treatment: MLN4924 1 uM, 8 h): 4.96 ± 0.34

Sequence: SEVTELRRVLQGLEIELQSQLSMK [KRT16]
- protein stability index (treatment: DMSO): 2.33 ± 0.2
- protein stability index (treatment: MLN4924 1 uM, 8 h): 2.33 ± 0.31

Sequence: EEPAEKEDLLQQMLERRYTPYPNL [CLCN6]
- protein stability index (treatment: DMSO): 4.4 ± 0.19
- protein stability index (treatment: MLN4924 1 uM, 8 h): 4.44 ± 0.37

Sequence: DKGGRVVIFQREQESKNQVHRRGE [PPP2R2B]
- protein stability index (treatment: DMSO): 4.59 ± 0.32
- protein stability index (treatment: MLN4924 1 uM, 8 h): 4.95 ± 0.29

Sequence: FVIKMPVMYRIGCLRDDVVFFIYL [CLPTM1]
- protein stability index (treatment: DMSO): 3.05 ± 0.39
- protein stability index (treatment: MLN4924 1 uM, 8 h): 3.06 ± 0.25

Sequence: QPPNAEEESGSSSASEEEDTKPKP [INTS3]
- protein stability index (treatment: DMSO): 5.72 ± 0.23
- protein stability index (treatment: MLN4924 1 uM, 8 h): 5.65 ± 0.21

Sequence: GPSLVPGKTPTVRAALICLTLVLV [CD207]
- protein stability index (treatment: DMSO): 2.28 ± 0.44
- protein stability index (treatment: MLN4924 1 uM, 8 h): 2.73 ± 0.62

Sequence: QALLKENRLLQEENRTLQVLRAEH [CBY2]
- protein stability index (treatment: DMSO): 4.02 ± 0.2
- protein stability index (treatment: MLN4924 1 uM, 8 h): 4.2 ± 0.065

Sequence: EHKSLTGTARYMSINTHLGKEQSR [CSNK1G3]
- protein stability index (treatment: DMSO): 4.02 ± 0.095
- protein stability index (treatment: MLN4924 1 uM, 8 h): 3.82 ± 0.38

Sequence: VTTRQVRTIVEEVQDGKVISSREQ [KRT17]
- protein stability index (treatment: DMSO): 4.87 ± 0.3
- protein stability index (treatment: MLN4924 1 uM, 8 h): 4.87 ± 0.36

Sequence: GQTSGAREPPQAVSIKEAAGSSNL [VENTX]
- protein stability index (treatment: DMSO): 5.26 ± 0.26
- protein stability index (treatment: MLN4924 1 uM, 8 h): 5.15 ± 0.25

Sequence: RALHWAAYMGHLDVVALLINHGAE [ANKRD44]
- protein stability index (treatment: DMSO): 2.56 ± 0.43
- protein stability index (treatment: MLN4924 1 uM, 8 h): 3.12 ± 0.66

Sequence: LKDVKSTLEKCEKVKTMEVTSVSI [TRIM39]
- protein stability index (treatment: DMSO): 3.92 ± 0.16
- protein stability index (treatment: MLN4924 1 uM, 8 h): 3.89 ± 0.17

Sequence: MSVLWLEHDRETRMQYAPDLMKRL [KLHL14]
- protein stability index (treatment: DMSO): 2.35 ± 0.11
- protein stability index (treatment: MLN4924 1 uM, 8 h): 2.45 ± 0.15
